Assay results from patent US20040126882A1, “Regulatable, catalytically active nucleic acids” (priority 2000, published 2004).
Like-named read-outs stand apart in the source and are kept apart here.

What was measured:
[1] = tested on: lysozyme-dependent clones; assay: Specificity of activation of lysozyme-dependent ribozymes by proteins; type: biochemical
Method: (§1) Protein inactivation. Standard ligation assays were performed as described above, but in the presence of protein samples that had been pre-treated as follows. Cyt18 protein was denatured by heating for 10 min at 70° C. or by the addition of 6% SDS (0.7% SDS in ligation reaction). Lysozyme was heated 10 min at 100° C. or incubated 10 min at room temperature in the presence of 2 mM DTT (0.3 mM DTT final reaction) without inactivating the protein. The protein was successfully inactivated by heating for […] at 70° C. in the presence of 2 mM DTT. Ligation reactions were performed with 1.3 μM protein in 15 μl reactions incubated 5 min at 25° C.

[2] = tested on: Cyt 18-dependent population; assay: Specificity of activation of Cyt18-dependent ribozymes by proteins; type: biochemical; conditions: Cyt18 denatured by heating or SDS
Method: as §1

[3] = target: group I self-splicing intron; conditions: cited from earlier work

B1: turkey lysozyme: extremely homologous (98%) turkey lysozyme (protein, UniProt P00703 19-147, looked up)
Lysozyme C: KVYGRCELAAAMKRLGLDNYRGYSLGNWVCAAKFESNFNTHATNRNTDGSTDYGILQINSRWWCNDGRTPGSKNLCNIPCSALLSSDITASVNCAKKIASGGNGMNAWVAWRNRCKGTDVHAWIRGCRL
activation of lysozyme-dependent ribozyme by other proteins [1]: cross-activation
activation of lysozyme-dependent ribozyme by other proteins ([1]; listed as turkey egg white lysozyme): activated

B2: Cyt18: tyrosyl tRNA synthetase from Neurospora mitochondria (protein, UniProt P12063 33-669, looked up)
Tyrosine--tRNA ligase, …: LRREFGPKYTAKINEAEENWQARAEAIKKGKKQNTWDLFEERGYVKDTAGTKEHIAELMRTRRIGAYVGIDPTAPSLHVGHLLPLMPLFWMYLEGYKAFTLIGGSTAKIGDPTGRLKSRDHLSSSDATMNMTKIHYQLKKLWENVDTQMRARGYEADWARKRGIVNNNHWWNKQPMLEVLRRVGHALRIGPMLSRDTVKNKMTQGDGVSFAEFTYPIMQGWDWFELFYQQGVQMQIGGSDQYGNIISGLEVVKAARESEPDPQERKYVTPKTALDECVGFTVPLLTDSSGAKFGKSAGNAIWLDPYQTSVFDFYGYFVRRSDQEVENLLKLFTFMPISEITKTMEEHIKDPSKRVAQHTLAREVVTLVHGKQEASAAEDQHRMMYTGQMTIPQVSRAKDAATGGDQYKTISDQPVTLNNAPRIDMILPESLIMGKSIGRILYAAGLASSTTEGHKLAAAQGCYVGGAHRAGGENVTMNPDLISFMPVKLWFPGETQRYLINGNLLILRKGKHNVRVIQMVSDVEYAASGQTYPGQSFTGAVRKLNEIMKNLKEKKLTPEEAKNAVNELQKSSQEKQQGQQIIFPEEKSRQKKDMETKLKQEMIASVKTIDGMMDEKPSVRGDGVKKQTQDDRDPYKW
activation of ribozyme catalysis by denatured Cyt18 [2]: unable to activate
Kd for group I self-splicing intron [3]: femptomolar range
activation of lysozyme-dependent ribozyme by other proteins [1]: inactive

B3: lysozyme from human milk: lysozyme from human milk (protein, UniProt P61626 19-148, looked up)
Lysozyme C: KVFERCELARTLKRLGMDGYRGISLANWMCLAKWESGYNTRATNYNAGDRSTDYGIFQINSRYWCNDGKTPGAVNACHLSCSALLQDNIADAVACAKRVVRDPQGIRAWVAWRNRCQNRDVRQYVQGCGV
activation of lysozyme-dependent ribozyme by other proteins [1]: inactive
